Experimental data: article PMC11488661 (Science immunology, 2024)

target: eOD-GT8 (monomeric ligand) (Human immunodeficiency virus 1, …)

Row | Binder | Kd [nM]
1 | g28v2-D58-3_CLK09 (antibody, V domains shown) VH: QVQLVQSGADVRKPGASVKVSCKASGYTFTDYYVHWVRQAPGQGLEWMGWINPNRGGTNYPQKFQGRVTMTRDTSISTAYMELSRLRSDDTAVYYCALWFGEKKTFDIWGQGTMVTVSS VL: DIQMTQSPSSLSASVGDRVTITCQASQGVSNYLNWYQQKPGKAPKLLIYDVSNLETGVPSRFSGSGSGTDFTFTISSLQPEDIATYYCQQYEFFGGGTKVEIK | 1.38
2 | g28v2-D58-4_CLK09 (antibody, V domains shown) VH: QVQLVQSGAEVKKPGASVKVSCKASGYTFIGYYIHWVRQAPGQGLEWMGWINPNRGGTNYPQKFQGRVTMTRDTSISTAYMELSRLRSDDTAVYYCALWFGEKKTFDIWGQGTMVTVSS VL: DIQMTQSPSSLSASVGDRVTITCQASQGVSNYLNWFQQKPGKALKLLIYDVSNLETGVPSRFSGSGSGTDFTFTISSLQPEDIATYYCQQYEFFGGGTKVEIK | 3.48
3 | g28v2-D58-5_CLK19 (antibody, V domains shown) VH: QVQLVQSGAEVKKPGASVKVSCKASGYTFTGYFIHWVRQAPGQGLEWMGWINPNRGGTNYAQKFQGRVTMTRDTSTSTAYMDLSRLRSDDTAMYYCTVVLAAYRWPFAYWGQGTLVTVSS VL: DIRVTQSPSSLSASVGDRVTITCQANQDIRNYLNWYQQKPGKAPKLLIYDVSKLETGVPSRFSGSGSGTDFTFTISSLQSEDIATYYCQQYETFGPGTKVDIK | 39
4 | g28v2-D58-6_CLK19 (antibody, V domains shown) VH: QVQLVQSGAEVKKPGASVKVSCKASGYTFTGYYIHWFRQAPGQGLEWMGWMNPSYGGTNYAQKFQGRVTMTRDTSINTAYMELSRLRSDDTAVYYCTPVLAAYRWRFDYWGQGTLVTVSS VL: DIQMTQSPSSLSASVGDRVTITCQANQAIRNYLNWYQQKPGKAPKLLIYDVSNLETGVPSRFSGSGSGTDFTFTISSLQSEDIATYYCQQYETFGPGTKVDIK | 1.06
5 | g28v2-D58-7_CLK09 (antibody, V domains shown) VH: QVQLVQSGAEVKKPGASVKVSCKASGYTFTGYYIHWVRQAPGQGLEWMGWMNPTGGGTNYAQKFQGRVTMTRDTSINTAYMELSRLRSDDTAVYYCTPVLADYRWRFDYWGQGTLVTVSS VL: DIQMTQSPSSLSAFVGDRVTITCQASQGVSKYLNWYQQKPGKAPKLLIYDASNLETGVPSRFSGSGSGTDFTFTISSLQPEDIATYYCQQYEFFGGGTKVEIK | 0.512
6 | g28v2-D58-8_CLK09 (antibody, V domains shown) VH: QVQLVQSGAEVKKPGASVKVSCKASGYTFTDYYLHWVRQAPGQGLEWMGWINPSTGGRNHARQFQGRVAMTRDTSISTAYMELSRLRSDDTAVYFCTPVLATFRWRFVYWGQGTLVTVSS VL: DIQMTQSPSSLSASVGDRVTITCQASQGVSNYLNWYQQKPGKAPKLLIYDVSNLETGVPSRFSGSGSGTDFTFTISSLQPEDIATYYCQQYEFFGGGTKVEIK | 0.444
7 | g28v2-D58-9_CLK09 (antibody, V domains shown) VH: QVQLVQSGAEVKKPGASVKVSCKASGNTFTGNYIHWIRQAPGQGLEWMGWLNPNSGGTNYAQQLQGRVTMTRDTSISTAYMELRRLRSDDTAVYYCARVEGLWFGKEWAFDIWGQGTMVTVSS VL: DIQMTQSPSSLSASVGDRVTITCQASQGVSNYLNWYQQKPGKALKLLIYDVSNLETGVPSRFSGSGSGTDFTFTISSLQPEDIATYYCQQYEFFGGGTKVEIK | 0.0455
8 | g5-D78-1_CLK19 (antibody, V domains shown) VH: QVQLVQSGAEVKKPGASVKVSCKASGYTFTGYFLHWVRQAPGQGLEWMGWINPNRGGVNYAQKFQGRVTMTRDTSINTAYMELSRLRSDDSAVYYCTPVLTNFRWRFDFWGQGTLVTVSS VL: DIQMTQSPSSLSASVGDRVTITCQASQDIKNYLNWYQQKPGTAPKLLIYDTSNLETGVPSRFSGSGSGTDFTFTISSLQPEDIATYYCQQYETFGPGTKVDIK | 8
9 | g5-D78-10_CLK19 (antibody, V domains shown) VH: QVQLVQSGAEVKKPGASVKVSCKASGYTFTGYFIHWVRQAPGQGLEWMGWINPSYGAVNYARKFQGRVTMTRDTSISTAYMELQRLRSDDTAIYHCTIALAGYRWGFDYWGQGALVTVSS VL: DIQMTQSPSSLSAFVGDRVTITCQARLDIRYSLNWYQQKPGKAPNLLIYDASNLETGVPSRFSGSGSGTNFTFTISTLQPEDIATYYCQQYETFGPGTKVHIK | 38
10 | g5-D78-12_CLK19 (antibody, V domains shown) VH: QVQLVQSGAEVKKPGASVKVSCKASGYTFTGYYIHWVRQAPGQGLEWMGWINPSYGAVNYARKFQGRVTMTRDTSISTAYMELQRLRSDDTAIYHCTIALAGYRWGFDYWGQGALVTVSS VL: DIQMTQSPSSLSAFVGDRVTITCQARLDIRYSLNWYQQKPGKAPNLLIYDASNLETGVPSRFSGSGSGTNFTFTINTLQPEDIATYYCQQYETFGPGTKVDIK | 12
11 | g5-D78-13_CLK19 (antibody, V domains shown) VH: QVQLVQSGAEVKKPGASVKVSCKASGYIFTDYNMHWVRQAPGQGLEWMGWINPSFGGRNIVQKFQGRVTMTRDTSISTAYMELSGLRSDDTAVYFCTPVLAPFRWRFAYWGQGTLVTVSS VL: DIQMTQSPSSLSASVGDRVTITCQASQDINYLNWYQQKPGKAPKLLIYDASNLETGVPSRFSGSGSGTDFTFTISSLQPEDIATYYCQQYAAFGPGTKVNIK | 4.9
12 | g5-D78-14_CLK19 (antibody, V domains shown) VH: QVQLVQSGAEVKKPGASVKVSCKASGYTFTGYYIHWVRQAPGQGLEWMGWINPSYGAVNYARKFQGRVTMTRDTSITTAYMELQRLRSDDTAIYYCTIALAGYRWGFDYWGQGALVTVSS VL: DIQMTQSPSSLSAFVGDRVTITCQARLDIRYSLNWYQQKPGKAPNLLIYDASNLETGVPSRFSGSGSGTNFTFTINTLQPEDIATYYCQQYETFGPGTKVDIK | 11
13 | g5-D78-15_CLK19 (antibody, V domains shown) VH: QVQLVQSGAEVKKPGASVKVSCKASGYIFTDYNMHWVRQAPGQGLEWMGWINPSFGGRNIVQKFQGRVTMTRDTSISTAYMELSGLRSDDTAVYFCTPVLAPFRWPFVYWGQGTLVTVSS VL: DIQMTQSPSSLSASVGDRVTITCQASQDINYLNWYQQKPGKAPKLLIYDASNLETGVPSRFSGSGSGTDFSFTISSLQPEDIATYYCQQYAAFGPGTKVDIK | 0.92
14 | g5-D78-16_CLK19 (antibody, V domains shown) VH: QVQLVQSGAEVKKPGASVKVSCKASGYTFTGYYIHWVRQAPGQGLEWMGWINPSYGAVNYARKFQGRVTMTRDTSISTAYMELQRLRSDDTAIYHCTIALAGYRWGFDYWGQGALVTVSS VL: DIQMTQSPSSLSAFVGDRVTITCQARLDIRYSLNWYQQKPGKAPNLLIYDASNLETGVPSRFSGSGSGTNFTFTISTLQPEDIATYYCQQYETFGPGTKVHFK | 12
15 | g5-D78-18_CLK19 (antibody, V domains shown) VH: QVQLVQSGAEVKKPGASVKVSCKASGYTFTGYYIHWVRQAPGQGLEWMGWINPTYGAVNYARKFQGRVTMTRDTSISTAYMELQSLRSDDTAIYHCTIALAGYRWGFDYWGQGALVTVSS VL: DIQMTQSPSSLSAFVGDRVTITCQARLDIRYSLNWYQQKPGKAPNLLIYDASNLETGVPSRFSGSGSGTNFTFTISTLQPEDIATYYCQQYETFGPGTKVDIK | 12
16 | g5-D78-19_CLK09 (antibody, V domains shown) VH: QVQLVQSGAEVKKPGVSVKVSCKASGYTFNGYYMHWVRQAPGQGLEWMGWINPNNGGMNVARRFQDRVTLTRDTSFTTAYMELSRLRSDDSAVYYCARVGGLWFGEKWTFDIWGQGTMVTVSS VL: DIQMTQSPSSLSASVGDRVTITCQTSQDISTFLNWYQQRPGKAPKLLIYGASNLATGVPSRFSGSGSGTDFTFTISSLQPEDIATYYCQQYEFFGGGTKVEIK | 0.2
